Laboratory results: patent US20210347889A1 (Merck Sharp & Dohme, published 2021)

Biological target: T1, membrane LAG3 (membrane-bound LAG3 expressed on immune cells) (human, UniProt P18627 23-525)
T1 sequence: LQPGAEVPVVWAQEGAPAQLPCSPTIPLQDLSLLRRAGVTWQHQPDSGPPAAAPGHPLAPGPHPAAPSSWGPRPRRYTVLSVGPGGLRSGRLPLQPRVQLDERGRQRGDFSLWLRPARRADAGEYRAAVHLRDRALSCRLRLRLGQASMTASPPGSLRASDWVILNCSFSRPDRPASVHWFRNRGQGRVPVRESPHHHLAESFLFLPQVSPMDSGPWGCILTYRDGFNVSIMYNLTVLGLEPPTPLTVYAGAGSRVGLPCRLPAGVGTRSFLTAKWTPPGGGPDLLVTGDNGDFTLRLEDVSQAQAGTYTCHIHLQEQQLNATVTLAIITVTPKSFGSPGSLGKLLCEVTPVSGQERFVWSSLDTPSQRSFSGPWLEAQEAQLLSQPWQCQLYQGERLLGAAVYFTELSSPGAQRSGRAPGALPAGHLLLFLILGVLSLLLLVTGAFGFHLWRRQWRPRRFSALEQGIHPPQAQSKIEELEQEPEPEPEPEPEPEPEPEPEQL
Assay: statement in Example 2 (rationale for sLAG3 as target engagement marker); no assay described

- binding result: binds
B1: anti-LAG3 antibody Ab6 (antibody, human IgG4 S228P, kappa, V domains shown)
VH: QMQLVQSGPEVKKPGTSVKVSCKASGYTFTDYNVDWVRQARGQRLEWIGDINPNDGGTIYAQKFQERVTITVDKSTSTAYMELSSLRSEDTAVYYCARNYRWFGAMDHWGQGTTVTVSS
VL: DIVMTQTPLSLSVTPGQPASISCKASQSLDYEGDSDMNWYLQKPGQPPQLLIYGASNLESGVPDRFSGSGSGTDFTLKISRVEAEDVGVYYCQQSTEDPRTFGGGTKVEIKR
notes: The claims say two heavy and two light chains
